From PMC4364678, “Biosynthesis of the Diterpenoid Lycosantalonol via Nerylneryl Diphosphate in Solanum lycopersicum” (PLoS ONE, 2015) come the findings set out here.

A word on the Km: it is the concentration of substrate that gives half-maximal velocity. In general, kcat refers to the number of substrate molecules converted per active site and unit of time at saturation. For orientation: kcat/Km means the turnover number divided by the Michaelis constant.

Substrate in series [1]: C=C(C)CCO[P@@](=O)(O)OP(=O)(O)O
Kind of series: purified protein. Conditions: 5-80 μM 14C-IPP at 150 μM zzFPP; labelled compound.

Substrate in series [2]: CC(C)=CCC/C(C)=C\CC/C(C)=C\COP(=O)(O)OP(=O)(O)O
Kind of series: purified protein. The format is biochemical, Solanum lycopersicum. Conditions: 10-80 μM zzFPP at 50 μM 14C-IPP.

B1: CPT2 (Solanum lycopersicum) (protein)
chain: MSDRGLSKISCSLSLQTEKLRYDNDDNDDLELHEELIPKHIALIMDGNRRWAKAKGLEVYEGHKLIIPKLKEICDISSKLGIQVITAFAFSTENWKRSKEEVDFLMQLFEEFFNEFLRFGVRVSVIGCKSNLPMTLQKCIALTEETTKGNKGLHLVIALNYGGYYDILQATKSIVNKAMNGLLDVEDINKNLFEQELESKCPNPDLLIRTGGEQRVSNFLLWQLAYTEFYFTNTLFPDFGEKDLKKAILNFQQRHRRFGGHTY
notes: N-terminal putative transit peptide (51 residues, 153 nt) deleted; vector pEXP5-CT/TOPO; E. coli BL21 (DE3)
In the case of B1, in the series “purified protein [1]”, the Km was 3.8 ± 0.3 µM, the kcat is 0.0026 s⁻¹ and the kcat/Km came to 680 M⁻¹ s⁻¹. In addition, in the series “purified protein [2]”, the Km amounted to 22.9 ± 1.1 µM, the catalytic constant (kcat) stood at 0.0026 ± 0.0001 s⁻¹ and the catalytic efficiency (kcat/Km) stood at 110 ± 10 M⁻¹ s⁻¹.
